This is an account of results in PMC10397247.

Common to all, as to test: two-hybrid library CCmax;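 further: natural log of median RNA to DNA barcode read ratio; higher means stronger binding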
One test deals with T1, P2-AA-1HGe-H.
T1 chain: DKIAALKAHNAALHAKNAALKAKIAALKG
The settings on record: mean of both orientations.

A further test has as its target T2, P2-AA-1HGe-T.
T2 chain: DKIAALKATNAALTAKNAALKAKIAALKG
The settings on record: mean of both orientations.

The target in a further test is T3, 4H58-AA.
T3 chain: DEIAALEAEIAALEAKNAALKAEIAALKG
The settings on record: mean of both orientations.

The target in a further test is T4, P2-AA-1HGe-Q.
T4 chain: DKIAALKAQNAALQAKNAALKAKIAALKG
As to conditions: mean of both orientations.

Another test concerns the target T5, 4H535-AA.
T5 chain: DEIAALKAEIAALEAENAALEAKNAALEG
As to conditions: mean of both orientations.

Another test addresses T6, 4H486-AA.
T6 chain: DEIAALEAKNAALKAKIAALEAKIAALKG
The settings on record: mean of both orientations.

A further test addresses GCN2_T.
For another test, the target named is T7, 4H_BCR.
T7 chain: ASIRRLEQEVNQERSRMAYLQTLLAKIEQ
As to conditions: mean of both orientations.

In another test the target is T8, 4H895-AA.
T8 chain: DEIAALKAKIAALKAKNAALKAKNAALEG
As to conditions: mean of both orientations.

The next test concerns the target T9, P2-AA-1HGe-M.
T9 chain: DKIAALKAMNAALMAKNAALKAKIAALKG
As to conditions: mean of both orientations.

In another test the target is 4H_GCN4.
Chain of 4H_GCN4 (chain, as listed by the source): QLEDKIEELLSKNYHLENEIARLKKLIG
In another test the target is T10, P2-AA-1HGe-D.
T10 chain: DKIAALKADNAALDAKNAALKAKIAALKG
As to conditions: mean of both orientations.

The target in the next test is T11, P2-AA-1HGe-A.
T11 chain: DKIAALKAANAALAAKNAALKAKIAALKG
As to conditions: mean of both orientations.

The next test concerns the target T12, 4H_APH.
T12 chain: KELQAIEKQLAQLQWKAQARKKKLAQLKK

The target in a further test is T13, 4H465-AA.
T13 chain: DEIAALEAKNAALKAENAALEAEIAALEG

A further test has as its target T14, P2-AA.
T14 chain: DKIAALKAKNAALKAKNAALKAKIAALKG
As to conditions: mean of both orientations.

For the next test, the target named is T15, P2-AA-1HGe-W.
T15 chain: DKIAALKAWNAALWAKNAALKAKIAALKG
The settings on record: mean of both orientations.

DEIAALEAKNAALKAENAALEAEIAALEG [4H465-AA]: the interaction score with P2-AA-1HGe-H is 1.53; with P2-AA-1HGe-T, 2.11; in the test with 4H58-AA it was 0.877; with P2-AA-1HGe-Q it was 1.82; in the test with 4H535-AA, -1.58; with 4H486-AA, -1.47. The interaction score is -1.97 with GCN2_T; -1.2 with 4H_BCR; -1.13 in the test with 4H895-AA; 1.47 with P2-AA-1HGe-M; -2.34 with 4H_GCN4; 1.36 with P2-AA-1HGe-D. Further, the interaction score is 1.85 with P2-AA-1HGe-A, -1.84 with 4H_APH, -1.82 with 4H465-AA and 1.61 with P2-AA.

Consider DEIAALEAMNAALMAENAALEAEIAALEG [P1-AA-1HGe-M], for which the interaction score with P2-AA-1HGe-T turned out to be 1.98; in the test with P2-AA-1HGe-Q it was 1.9; in the test with P2-AA-1HGe-W, 2.3; in the test with P2-AA-1HGe-M, 2.29; with P2-AA-1HGe-D it was 2.01; with P2-AA-1HGe-A it was 2.28. The molecule also returned an interaction score with P2-AA of 2.14.

For the molecule DEIAALEAHNAALHAENAALEAEIAALEG [P1-AA-1HGe-H], the interaction score in the test with P2-AA-1HGe-H turned out to be 1.57; with P2-AA-1HGe-T, 1.71; with P2-AA-1HGe-Q it was 2.16; in the test with P2-AA-1HGe-M, 1.8; with P2-AA-1HGe-D, 1.6; with P2-AA-1HGe-A it was 2.34. In the test with P2-AA, this molecule had an interaction score of 1.8.
